Patent US20140274782A1, “AFFINITY REAGENTS AND METHODS FOR DETECTION, PURIFICATION, AND PROTEOMIC ANALYSIS OF METHYLATED PROTEINS” (The Board of Trustees of the Leland Stanford Junior …, priority 2013, published 2014)

T1: G9a and GLP (Homo sapiens, UniProt Q96KQ7+Q9H9B1)
T1 sequence (Q96KQ7 2-1210 limits assumed): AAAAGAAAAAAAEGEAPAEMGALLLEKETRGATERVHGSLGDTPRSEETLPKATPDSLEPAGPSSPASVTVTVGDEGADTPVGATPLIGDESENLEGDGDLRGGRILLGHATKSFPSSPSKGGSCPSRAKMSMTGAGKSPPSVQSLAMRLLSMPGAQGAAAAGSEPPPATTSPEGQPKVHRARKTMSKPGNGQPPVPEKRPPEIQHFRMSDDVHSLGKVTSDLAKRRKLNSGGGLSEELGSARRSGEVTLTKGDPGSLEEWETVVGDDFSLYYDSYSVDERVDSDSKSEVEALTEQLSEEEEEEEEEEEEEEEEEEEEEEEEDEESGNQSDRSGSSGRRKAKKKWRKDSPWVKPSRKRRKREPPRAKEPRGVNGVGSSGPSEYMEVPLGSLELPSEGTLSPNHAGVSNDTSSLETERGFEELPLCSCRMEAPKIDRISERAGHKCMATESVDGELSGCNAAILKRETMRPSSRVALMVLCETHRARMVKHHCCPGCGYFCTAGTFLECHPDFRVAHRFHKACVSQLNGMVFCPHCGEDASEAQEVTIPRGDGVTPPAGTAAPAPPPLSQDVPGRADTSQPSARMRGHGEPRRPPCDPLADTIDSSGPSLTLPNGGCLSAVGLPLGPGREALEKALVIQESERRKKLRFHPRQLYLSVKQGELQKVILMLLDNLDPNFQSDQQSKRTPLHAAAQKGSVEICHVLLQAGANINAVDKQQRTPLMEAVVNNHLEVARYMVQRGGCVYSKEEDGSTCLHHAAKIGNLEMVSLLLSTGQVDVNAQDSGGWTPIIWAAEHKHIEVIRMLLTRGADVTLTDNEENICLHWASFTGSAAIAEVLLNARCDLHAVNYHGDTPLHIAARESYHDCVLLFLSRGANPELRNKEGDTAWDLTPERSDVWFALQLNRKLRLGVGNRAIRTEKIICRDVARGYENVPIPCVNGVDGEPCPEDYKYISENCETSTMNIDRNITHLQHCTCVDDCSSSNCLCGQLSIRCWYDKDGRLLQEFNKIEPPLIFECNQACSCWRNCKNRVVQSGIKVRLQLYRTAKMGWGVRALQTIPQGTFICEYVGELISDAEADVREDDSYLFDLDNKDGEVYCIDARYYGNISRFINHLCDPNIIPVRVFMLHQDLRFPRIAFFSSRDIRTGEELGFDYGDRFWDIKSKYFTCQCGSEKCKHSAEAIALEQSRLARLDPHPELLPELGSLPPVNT
T1 sequence (Q9H9B1 2-1298 limits assumed): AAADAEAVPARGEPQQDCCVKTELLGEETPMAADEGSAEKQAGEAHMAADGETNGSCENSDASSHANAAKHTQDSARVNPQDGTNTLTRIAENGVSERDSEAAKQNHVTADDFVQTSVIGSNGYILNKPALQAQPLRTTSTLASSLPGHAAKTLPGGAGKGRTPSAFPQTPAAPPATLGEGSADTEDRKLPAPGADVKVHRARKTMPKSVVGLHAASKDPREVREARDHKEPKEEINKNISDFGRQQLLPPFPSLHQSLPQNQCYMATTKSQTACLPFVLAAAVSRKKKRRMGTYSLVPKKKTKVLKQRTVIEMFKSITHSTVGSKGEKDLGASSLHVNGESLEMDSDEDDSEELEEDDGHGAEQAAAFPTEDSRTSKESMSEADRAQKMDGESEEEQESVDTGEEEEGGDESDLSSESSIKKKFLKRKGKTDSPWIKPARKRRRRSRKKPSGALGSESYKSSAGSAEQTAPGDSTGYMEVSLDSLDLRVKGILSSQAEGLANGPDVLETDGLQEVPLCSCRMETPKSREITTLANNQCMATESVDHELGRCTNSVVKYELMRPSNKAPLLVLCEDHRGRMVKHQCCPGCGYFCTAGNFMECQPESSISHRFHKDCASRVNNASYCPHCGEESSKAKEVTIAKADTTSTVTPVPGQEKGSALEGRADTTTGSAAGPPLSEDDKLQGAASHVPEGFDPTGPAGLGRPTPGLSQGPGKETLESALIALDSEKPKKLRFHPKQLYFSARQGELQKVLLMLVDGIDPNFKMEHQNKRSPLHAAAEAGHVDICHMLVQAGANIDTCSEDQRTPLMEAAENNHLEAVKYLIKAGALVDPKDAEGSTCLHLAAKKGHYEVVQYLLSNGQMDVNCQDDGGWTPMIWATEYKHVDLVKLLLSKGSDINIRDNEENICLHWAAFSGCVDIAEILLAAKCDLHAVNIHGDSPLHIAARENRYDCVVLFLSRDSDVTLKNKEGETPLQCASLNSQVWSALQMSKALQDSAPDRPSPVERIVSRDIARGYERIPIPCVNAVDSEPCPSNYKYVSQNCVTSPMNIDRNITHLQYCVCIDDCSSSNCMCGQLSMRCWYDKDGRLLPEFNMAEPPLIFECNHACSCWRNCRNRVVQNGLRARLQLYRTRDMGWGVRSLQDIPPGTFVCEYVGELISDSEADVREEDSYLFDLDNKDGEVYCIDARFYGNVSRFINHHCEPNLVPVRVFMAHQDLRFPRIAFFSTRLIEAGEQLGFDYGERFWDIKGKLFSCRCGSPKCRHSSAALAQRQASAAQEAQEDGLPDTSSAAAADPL


Columns and labels:
3×MBT domain of L3MBTL1 = assay: Triple SILAC pull-down, 3xMBT/3xMBTD355N ratio (cytoplasmic, nuclear and chromatin fractions of 293T cells); type: binding, human; settings: SILAC ratio, pull-down 3xMBT vs 3xMBTD355N; for 3xMBT/D355N UNC Heavy: experiment with UNC0638 in heavy SILAC media; for 3xMBT/D355N UNC Light: experiment with UNC0638 in light SILAC media;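 on all read-outs here: proteins quantified with MaxQuant, requiring at least two unique peptides and quantification in both label directions, normalized to the mean of proteins from a digested loading control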
G9a and GLP = biological target: T1, G9a and GLP; assay: Triple SILAC pull-down after UNC0638 treatment of 293T cells, DMSO/UNC0638 ratio of protein captured by 3×MBT; type: cell-based; design: cells were treated for 24 hours with UNC0638 at 2.5 μM or DMSO vehicle control; endogenous in cells; host or cells: HEK 293T; settings: for Relative to UNC0638 UNC Heavy / Relative to UNC0638 UNC Light: SILAC ratio DMSO/UNC0638 of protein pulled down with 3xMBT; for Relative to UNC0638 UNC Heavy: UNC0638 in heavy SILAC media; for Relative to UNC0638 UNC Light: UNC0638 in light SILAC media; for Relative to UNC0638 Average: average of UNC Light and UNC Heavy experiments;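 on all read-outs here: mass spectrometry (Q-Exactive) SILAC quantitation, DMSO/UNC0638 ratio computed after subtracting 3×MBTD355N mutant pull-down background, only proteins with at least twofold 3×MBT over mutant signal considered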

Row | Molecule | 3xMBT/D355N UNC Heavy (3×MBT domain of L3MBTL1) [log base 2] | 3xMBT/D355N UNC Light (3×MBT domain of L3MBTL1) [log base 2] | Relative to UNC0638 UNC Heavy (G9a and GLP) [log base 2] | Relative to UNC0638 UNC Light (G9a and GLP) [log base 2] | Relative to UNC0638 Average (G9a and GLP) [log base 2]
1 | ATXN2L (protein, UniProt Q8WWM7 1-1075, looked up) Ataxin-2-like protein: MLKPQPLQQPSQPQQPPPTQQAVARRPPGGTSPPNGGLPGPLATSAAPPGPPAAASPCLGPVAAAGSGLRRGAEGILAPQPPPPQQHQERPGAAAIGSARGQSTGKGPPQSPVFEGVYNNSRMLHFLTAVVGSTCDVKVKNGTTYEGIFKTLSSKFELAVDAVHRKASEPAGGPRREDIVDTMVFKPSDVMLVHFRNVDFNYATKDKFTDSAIAMNSKVNGEHKEKVLQRWEGGDSNSDDYDLESDMSNGWDPNEMFKFNEENYGVKTTYDSSLSSYTVPLEKDNSEEFRQRELRAAQLAREIESSPQYRLRIAMENDDGRTEEEKHSAVQRQGSGRESPSLASREGKYIPLPQRVREGPRGGVRCSSSRGGRPGLSSLPPRGPHHLDNSSPGPGSEARGINGGPSRMSPKAQRPLRGAKTLSSPSNRPSGETSVPPPPAVGRMYPPRSPKSAAPAPISASCPEPPIGSAVPTSSASIPVTSSVSDPGVGSISPASPKISLAPTDVKELSTKEPGRTLEPQELARIAGKVPGLQNEQKRFQLEELRKFGAQFKLQPSSSPENSLDPFPPRILKEEPKGKEKEVDGLLTSEPMGSPVSSKTESVSDKEDKPPLAPSGGTEGPEQPPPPCPSQTGSPPVGLIKGEDKDEGPVAEQVKKSTLNPNAKEFNPTKPLLSVNKSTSTPTSPGPRTHSTPSIPVLTAGQSGLYSPQYISYIPQIHMGPAVQAPQMYPYPVSNSVPGQQGKYRGAKGSLPPQRSDQHQPASAPPMMQAAAAAGPPLVAATPYSSYIPYNPQQFPGQPAMMQPMAHYPSQPVFAPMLQSNPRMLTSGSHPQAIVSSSTPQYPSAEQPTPQALYATVHQSYPHHATQLHAHQPQPATTPTGSQPQSQHAAPSPVQHQAGQAPHLGSGQPQQNLYHPGALTGTPPSLPPGPSAQSPQSSFPQPAAVYAIHHQQLPHGFTNMAHVTQAHVQTGITAAPPPHPGAPHPPQVMLLHPPQSHGGPPQGAVPQSGVPALSASTPSPYPYIGHPQGEQPGQAPGFPGGADDRIREFSLAGGIWHGRAEGLQVGQDARVLGGE | 2.64 | 2.66 | 0.31 | 0.12 | 0.21
2 | CHERP (protein, UniProt Q8IWX8 1-916, looked up) Calcium homeostasis …: MEMPLPPDDQELRNVIDKLAQFVARNGPEFEKMTMEKQKDNPKFSFLFGGEFYSYYKCKLALEQQQLICKQQTPELEPAATMPPLPQPPLAPAAPIPPAQGAPSMDELIQQSQWNLQQQEQHLLALRQEQVTAAVAHAVEQQMQKLLEETQLDMNEFDNLLQPIIDTCTKDAISAGKNWMFSNAKSPPHCELMAGHLRNRITADGAHFELRLHLIYLINDVLHHCQRKQARELLAALQKVVVPIYCTSFLAVEEDKQQKIARLLQLWEKNGYFDDSIIQQLQSPALGLGQYQATLINEYSSVVQPVQLAFQQQIQTLKTQHEEFVTSLAQQQQQQQQQQQQLQMPQMEAEVKATPPPPAPPPAPAPAPAIPPTTQPDDSKPPIQMPGSSEYEAPGGVQDPAAAGPRGPGPHDQIPPNKPPWFDQPHPVAPWGQQQPPEQPPYPHHQGGPPHCPPWNNSHEGMWGEQRGDPGWNGQRDAPWNNQPDAAWNSQFEGPWNSQHEQPPWGGGQREPPFRMQRPPHFRGPFPPHQQHPQFNQPPHPHNFNRFPPRFMQDDFPPRHPFERPPYPHRFDYPQGDFPAEMGPPHHHPGHRMPHPGINEHPPWAGPQHPDFGPPPHGFNGQPPHMRRQGPPHINHDDPSLVPNVPYFDLPAGLMAPLVKLEDHEYKPLDPKDIRLPPPMPPSERLLAAVEAFYSPPSHDRPRNSEGWEQNGLYEFFRAKMRARRRKGQEKRNSGPSRSRSRSKSRGRSSSRSNSRSSKSSGSYSRSRSRSCSRSYSRSRSRSRSRSRSSRSRSRSQSRSRSKSYSPGRRRRSRSRSPTPPSSAGLGSNSAPPIPDSRLGEENKGHQMLVKMGWSGSGGLGAKEQGIQDPIKGGDVRDKWDQYKGVGVALDDPYENYRRNKSYSFIARMKARDECK | 1.58 | 2.26 | 0.38 | 0.05 | 0.22
3 | RFC1 (protein, UniProt P35251 1-1148, looked up) Replication factor C subunit 1: MDIRKFFGVIPSGKKLVSETVKKNEKTKSDEETLKAKKGIKEIKVNSSRKEDDFKQKQPSKKKRIIYDSDSESEETLQVKNAKKPPEKLPVSSKPGKISRQDPVTYISETDEEDDFMCKKAASKSKENGRSTNSHLGTSNMKKNEENTKTKNKPLSPIKLTPTSVLDYFGTGSVQRSNKKMVASKRKELSQNTDESGLNDEAIAKQLQLDEDAELERQLHEDEEFARTLAMLDEEPKTKKARKDTEAGETFSSVQANLSKAEKHKYPHKVKTAQVSDERKSYSPRKQSKYESSKESQQHSKSSADKIGEVSSPKASSKLAIMKRKEESSYKEIEPVASKRKENAIKLKGETKTPKKTKSSPAKKESVSPEDSEKKRTNYQAYRSYLNREGPKALGSKEIPKGAENCLEGLIFVITGVLESIERDEAKSLIERYGGKVTGNVSKKTNYLVMGRDSGQSKSDKAAALGTKIIDEDGLLNLIRTMPGKKSKYEIAVETEMKKESKLERTPQKNVQGKRKISPSKKESESKKSRPTSKRDSLAKTIKKETDVFWKSLDFKEQVAEETSGDSKARNLADDSSENKVENLLWVDKYKPTSLKTIIGQQGDQSCANKLLRWLRNWQKSSSEDKKHAAKFGKFSGKDDGSSFKAALLSGPPGVGKTTTASLVCQELGYSYVELNASDTRSKSSLKAIVAESLNNTSIKGFYSNGAASSVSTKHALIMDEVDGMAGNEDRGGIQELIGLIKHTKIPIICMCNDRNHPKIRSLVHYCFDLRFQRPRVEQIKGAMMSIAFKEGLKIPPPAMNEIILGANQDIRQVLHNLSMWCARSKALTYDQAKADSHRAKKDIKMGPFDVARKVFAAGEETAHMSLVDKSDLFFHDYSIAPLFVQENYIHVKPVAAGGDMKKHLMLLSRAADSICDGDLVDSQIRSKQNWSLLPAQAIYASVLPGELMRGYMTQFPTFPSWLGKHSSTGKHDRIVQDLALHMSLRTYSSKRTVNMDYLSLLRDALVQPLTSQGVDGVQDVVALMDTYYLMKEDFENIMEISSWGGKPSPFSKLDPKVKAAFTRAYNKEAHLTPYSLQAIKASRHSTSPSLDSEYNEELNEDDSQSDEKDQDAIETDAMIKKKTKSSKPSKPEKDKEPRKGKGKSSKK | 1.29 | −1.32 | 0.61 | −0.18 | 0.21
